Data published in paper PMC7842947.

Target: chondroitin sulfate proteoglycan 4 (CSPG4), endogenous on HeLa cells (human (endogenous in HeLa)) (UniProt Q6UVK1)
Chain of UniProt Q6UVK1 (Q6UVK1 30-2322): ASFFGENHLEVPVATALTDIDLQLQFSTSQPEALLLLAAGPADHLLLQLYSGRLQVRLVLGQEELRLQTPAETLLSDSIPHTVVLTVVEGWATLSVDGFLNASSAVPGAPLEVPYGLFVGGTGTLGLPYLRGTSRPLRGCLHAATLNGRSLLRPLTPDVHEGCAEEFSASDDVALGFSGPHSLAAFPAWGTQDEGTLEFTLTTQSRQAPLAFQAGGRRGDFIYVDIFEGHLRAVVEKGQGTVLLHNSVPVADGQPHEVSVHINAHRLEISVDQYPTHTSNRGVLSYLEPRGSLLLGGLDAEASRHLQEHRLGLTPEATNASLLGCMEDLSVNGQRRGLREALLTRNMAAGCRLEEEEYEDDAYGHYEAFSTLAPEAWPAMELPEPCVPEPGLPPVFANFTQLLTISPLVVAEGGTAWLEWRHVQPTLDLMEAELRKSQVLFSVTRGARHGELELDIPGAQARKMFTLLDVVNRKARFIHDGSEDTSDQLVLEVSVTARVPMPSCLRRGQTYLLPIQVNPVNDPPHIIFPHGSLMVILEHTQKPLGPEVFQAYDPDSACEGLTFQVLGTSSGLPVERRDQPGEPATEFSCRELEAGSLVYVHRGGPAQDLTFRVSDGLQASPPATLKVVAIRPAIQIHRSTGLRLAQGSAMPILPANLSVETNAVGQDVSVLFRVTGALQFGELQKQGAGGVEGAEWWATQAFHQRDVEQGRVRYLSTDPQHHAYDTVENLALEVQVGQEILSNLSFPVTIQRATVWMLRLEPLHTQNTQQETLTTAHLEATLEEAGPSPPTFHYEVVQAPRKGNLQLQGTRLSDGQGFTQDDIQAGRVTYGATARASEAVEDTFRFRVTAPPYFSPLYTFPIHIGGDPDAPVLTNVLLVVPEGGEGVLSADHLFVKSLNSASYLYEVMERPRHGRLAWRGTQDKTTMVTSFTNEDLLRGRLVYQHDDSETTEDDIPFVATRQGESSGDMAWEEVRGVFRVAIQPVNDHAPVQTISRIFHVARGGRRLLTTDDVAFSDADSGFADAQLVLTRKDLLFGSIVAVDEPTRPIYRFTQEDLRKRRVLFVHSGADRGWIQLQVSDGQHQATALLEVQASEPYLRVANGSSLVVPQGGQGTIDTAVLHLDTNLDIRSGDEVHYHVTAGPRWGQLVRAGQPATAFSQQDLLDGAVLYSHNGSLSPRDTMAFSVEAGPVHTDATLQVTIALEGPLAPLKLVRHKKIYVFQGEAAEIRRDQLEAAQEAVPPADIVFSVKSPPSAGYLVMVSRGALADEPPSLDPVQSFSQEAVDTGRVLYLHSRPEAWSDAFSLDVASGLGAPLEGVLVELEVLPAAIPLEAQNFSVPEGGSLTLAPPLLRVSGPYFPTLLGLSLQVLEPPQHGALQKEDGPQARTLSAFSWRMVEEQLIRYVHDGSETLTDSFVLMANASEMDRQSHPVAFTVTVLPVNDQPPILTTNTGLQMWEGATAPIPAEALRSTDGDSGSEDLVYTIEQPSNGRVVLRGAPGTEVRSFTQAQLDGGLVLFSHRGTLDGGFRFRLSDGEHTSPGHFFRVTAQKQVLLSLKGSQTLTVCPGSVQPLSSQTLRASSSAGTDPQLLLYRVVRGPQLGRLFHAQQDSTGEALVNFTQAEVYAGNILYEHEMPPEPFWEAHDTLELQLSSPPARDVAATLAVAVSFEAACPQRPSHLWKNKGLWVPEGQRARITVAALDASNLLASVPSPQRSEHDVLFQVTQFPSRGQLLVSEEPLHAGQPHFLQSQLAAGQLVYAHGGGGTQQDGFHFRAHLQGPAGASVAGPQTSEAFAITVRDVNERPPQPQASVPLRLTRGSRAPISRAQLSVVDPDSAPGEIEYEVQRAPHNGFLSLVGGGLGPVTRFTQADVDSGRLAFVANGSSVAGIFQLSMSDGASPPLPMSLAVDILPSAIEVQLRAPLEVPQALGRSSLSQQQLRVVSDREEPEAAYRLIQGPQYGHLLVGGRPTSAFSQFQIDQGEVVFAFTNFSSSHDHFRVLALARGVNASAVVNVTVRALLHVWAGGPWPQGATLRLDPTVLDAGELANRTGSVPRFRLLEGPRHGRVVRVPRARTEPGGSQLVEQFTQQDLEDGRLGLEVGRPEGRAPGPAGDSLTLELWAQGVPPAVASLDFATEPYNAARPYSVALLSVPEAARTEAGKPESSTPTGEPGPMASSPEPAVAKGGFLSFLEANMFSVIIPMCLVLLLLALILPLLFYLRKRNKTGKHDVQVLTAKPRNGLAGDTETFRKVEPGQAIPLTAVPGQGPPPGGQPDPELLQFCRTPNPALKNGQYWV

“Clostridioides difficile toxin B variant 2 (TcdB2), full length, reference sequence from strain CD196 (natural protein)” was tested, and the CR50, cytopathic cell-rounding assay on HeLa FZD1/2/7-/- cells was 0.06 pM.
